Values joined by “and” are separate entries in the source; they are usually repeats but may differ in a detail not shown here. Identical values can stand only once. Marks after values point to notes of the source that are not given here.
Columns and labels:
CYP3A4 [1] = experiment: Testosterone hydroxylase activity of wild-type and mutant CYP3A4 proteins (reconstituted with NADPH-cytochrome P450 reductase and cytochrome b5); type: biochemical, human; settings: for Testosterone hydroxylase activity relative to wild-type CYP3A4: 25 μM testosterone (lower steroid concentration)
Description: (§1) Mutants were expressed in E. coli TOPP3 cells. Cultures of each strain were started from single colonies in 2-ml of LB media containing ampicillin (50 μg/ml) and tetracycline (15 μg/ml) and grown overnight at 37° C. with shaking. Larger, 20-ml cultures of each sample were inoculated and grown as described for the 2-ml cultures. Starter cultures (15 ml) were inoculated into 250-ml of TB media containing ampicillin (50 μg/ml) and grown 2-3 hr at 37° C. at 250 rpm. δ-aminolevulinic acid (80 mg/L) and IPTG (1 mM) were added and the cultures grown 72 hr at 30° C. at 190 rpm. The cells were harvested, sonicated and CHAPS solubilized, and the protein was purified on Talon Metal Affinity resin from Clontech (Palo Alto, Calif.). Final P450 content was measured by reduced CO difference spectra (Omura, J Biol Chem 239 (1964), 2370-2378), and each protein was visualized on an 8.5% SDS PAGE gel stained with Coomassie blue. Western Blot analysis of CYP3A4 wild-type, M2, M5 and M7 was performed by resolving 1 pmol of 3A4 wildtype and M5, and 8 μl of M2 and M7 total protein sample on an 8.5% SDS PAGE gel. The samples were then transferred to nitrocellulose and probed with an anti-3A12 polyclonal antibody known to cross-react with CYP3A4 (Ciaccio, Arch Biochem Biophys 271 (1989), 284-99).
(§2) Following the reconstitution with NADPH-cytochrome P450 reductase and cytochrome b5, the catalytical activities of M1, M4, M5 and M6 variants were measured using testosterone, progesterone and 7-BFC as substrates (Tables 5-7).

CYP3A4 [2] = experiment: Progesterone hydroxylase activity of wild-type and mutant CYP3A4 proteins; type: biochemical, human
Description: as §1, §2

CYP3A4 [3] = experiment: 7-Benzyloxy-4-(trifluoromethyl)coumarin (7-BFC) debenzylase activity of wild-type and mutant CYP3A4 proteins; type: biochemical, human; settings: for 7-BFC debenzylase activity, 7-hydroxy-4-(trifluoromethyl)coumarin: substrate 7-BFC
Description: as §1, §2

CYP3A4 holoenzyme = experiment: Expression of CYP3A4 holoenzyme in E. coli, reduced CO difference spectra; design: species or system human
Description: as §1
The effect of the protein variants on the expression level and catalytical activity of CYP3A4 was investigated using a bacterial CYP3A4 expression system. Sequence variants were introduced into the pSE3A4H expression vector (Harlow, J Biol Chem 272 (1997), 5396-402) which encodes for a CYP3A4 protein identical to that found in most Caucasians. No other, unwanted mutations were introduced into the CYP3A4 insert or the promoter driving its expression as confirmed by sequencing. Mutants M1-M8 were expressed in E. coli as described in Example 5, the expression of the CYP3A4 holoenzyme assessed by measuring reduced CO difference spectra, and the protein purified. All but M2, M5 and M7 mutants were detectable at levels similar to CYP3A4. […] The expression of M2, M5, and M7 was further investigated by Western Blotting using an anti-CYP3A12 polyclonal antibody known to cross-react with CYP3A4 (Ciaccio, Arch Biochem Biophys 271 (1989), 284-99) as described in Example 5.

CYP3A4 [4] = experiment: Western blot with anti-CYP3A12 polyclonal antibody; design: species or system human
Description: FIG. 7: Immunoblot of wild-type CYP3A4 (3A4), R130Q (M2), T363M (M5), and P416L (M7). P450 (1 pmol) was loaded into each lane, transferred to nitrocellulose, and probed with anti-3A12 IgG as described in Materials and Methods.
as §1
The effect of the protein variants on the expression level and catalytical activity of CYP3A4 was investigated using a bacterial CYP3A4 expression system. Sequence variants were introduced into the pSE3A4H expression vector (Harlow, J Biol Chem 272 (1997), 5396-402) which encodes for a CYP3A4 protein identical to that found in most Caucasians. […] Mutants M1-M8 were expressed in E. coli as described in Example 5, the expression of the CYP3A4 holoenzyme assessed by measuring reduced CO difference spectra, and the protein purified. […]

CYP3A4 [5] = biological target: T1, CYP3A4 (Homo sapiens, UniProt P08684, D174H); experiment: Progesterone hydroxylase activity of wild-type and mutant CYP3A4 proteins; type: biochemical; settings: lower steroid concentration
T1 construct: made in house; host or cells: E. coli TOPP3
Description: as §1, §2

CYP3A4 [6] = biological target: T2, CYP3A4 (Homo sapiens, UniProt P08684, T363M); experiment: Testosterone hydroxylase activity of wild-type and mutant CYP3A4 proteins (reconstituted with NADPH-cytochrome P450 reductase and cytochrome b5); type: biochemical; settings: Table 5
T2 construct: made in house; host or cells: E. coli TOPP3
Description: as §1, §2

CYP3A4 [7] = biological target: T2, CYP3A4; experiment: Progesterone hydroxylase activity of wild-type and mutant CYP3A4 proteins; type: biochemical; settings: Table 6
Description: as §1, §2

CYP3A4 [8] = biological target: T2, CYP3A4; experiment: 7-Benzyloxy-4-(trifluoromethyl)coumarin (7-BFC) debenzylase activity of wild-type and mutant CYP3A4 proteins; type: biochemical; settings: Table 7
Description: as §1, §2

[9] = E. coli expression, reduced CO difference spectra

T2 sequence (P08684 2-503 T363M): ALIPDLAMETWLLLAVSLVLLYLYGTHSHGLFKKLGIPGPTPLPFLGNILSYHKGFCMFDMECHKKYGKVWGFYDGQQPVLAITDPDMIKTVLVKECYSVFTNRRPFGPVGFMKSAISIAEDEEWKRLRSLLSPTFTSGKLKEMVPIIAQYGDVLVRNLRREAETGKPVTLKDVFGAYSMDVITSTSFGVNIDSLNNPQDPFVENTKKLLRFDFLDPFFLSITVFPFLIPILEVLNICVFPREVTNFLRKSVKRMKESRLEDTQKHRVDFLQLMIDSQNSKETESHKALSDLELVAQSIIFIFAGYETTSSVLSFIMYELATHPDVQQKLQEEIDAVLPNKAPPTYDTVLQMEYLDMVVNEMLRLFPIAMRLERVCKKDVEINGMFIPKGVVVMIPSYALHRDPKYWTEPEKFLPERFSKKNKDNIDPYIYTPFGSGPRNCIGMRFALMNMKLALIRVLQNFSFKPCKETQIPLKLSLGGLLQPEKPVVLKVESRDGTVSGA
T1 sequence (P08684 2-503 D174H): as the sequence (P08684 2-503 T363M) above, with D173H, M362T counted along it

Row | Substance | Testosterone hydroxylase metabolite profile compared with wild-type CYP3A4 (CYP3A4 [1]) | Testosterone hydroxylase activity, 2β-OH (CYP3A4 [1]; 25 μM testosterone) | Testosterone hydroxylase activity, 6β-OH (CYP3A4 [1]; 25 μM testosterone) | Testosterone hydroxylase activity, 15β-OH (CYP3A4 [1]; 25 μM testosterone) | Testosterone hydroxylase activity, 2β-OH (CYP3A4 [1]; 400 μM testosterone) | Testosterone hydroxylase activity, 6β-OH (CYP3A4 [1]; 400 μM testosterone) | Testosterone hydroxylase activity, 15β-OH (CYP3A4 [1]; 400 μM testosterone) | Progesterone hydroxylase 6β/16α ratio (CYP3A4 [2]; 25 μM progesterone) | Progesterone hydroxylase activity, 6β-OH (CYP3A4 [2]; 25 μM progesterone) | Progesterone hydroxylase activity, 16α-OH (CYP3A4 [2]; 25 μM progesterone) | Progesterone hydroxylase 6β/16α ratio (CYP3A4 [2]; 150 μM progesterone) | Progesterone hydroxylase activity, 6β-OH (CYP3A4 [2]; 150 μM progesterone) | Progesterone hydroxylase activity, 16α-OH (CYP3A4 [2]; 150 μM progesterone) | Effect of mutation on expression of CYP3A4 holoenzyme (conclusion) (CYP3A4 holoenzyme) | Band in immunoblot (CYP3A4 [4]) | 7-BFC debenzylase activity, 7-hydroxy-4-(trifluoromethyl)coumarin (CYP3A4 [3]) | also measured
1 | M1: CYP3A4 protein variant G56D (g.6004G>A, exon 3) [Mutant M1] | Neither M1 nor M4 mutant displayed alterations | <0.1, <0.1 nmol product/min/nmol protein | 5.1 nmol product/min/nmol protein and 4.8 nmol product/min/nmol protein | 0.2, 0.2 nmol product/min/nmol protein | 5.4 nmol product/min/nmol protein and 6.9 nmol product/min/nmol protein | 32.1, nmol product/min/nmol protein and 32.2^b nmol product/min/nmol protein | 1.2 nmol product/min/nmol protein and 1.1 nmol product/min/nmol protein | 5.6, 5.6 | 7.8, nmol product/min/nmol protein and 7.9^b nmol product/min/nmol protein | 1.4, 1.4 nmol product/min/nmol protein | 5.1, 5.1 | 21.3, nmol product/min/nmol protein and 21.3^b nmol product/min/nmol protein | 4.2, 4.2 nmol product/min/nmol protein |  |  |  | Testosterone hydroxylase activity relative to wild-type CYP3A4 (CYP3A4 [1]): 53%; Progesterone (steroid) hydroxylase metabolite profile compared with wild-type CYP3A4 (CYP3A4 [2]): Neither M1 nor M4 mutant displayed alterations; 7-BFC debenzylase activity relative to CYP3A4 (CYP3A4 [3]): 137%
2 | M2: CYP3A4 protein variant R130Q (g.13908G>A, exon 5) [Mutant M2] |  |  |  |  |  |  |  |  |  |  |  |  |  | abolish | Bands of the expected size |  | Detectable P450 holoprotein, in words (CYP3A4 holoenzyme; [9]): no detectable P450 holoprotein
3 | M4: CYP3A4 protein variant D174H (g.14304G>C, exon 6) [Mutant M4] | Neither M1 nor M4 mutant displayed alterations | <0.1, <0.1 nmol product/min/nmol protein | 4.4 nmol product/min/nmol protein and 3.9 nmol product/min/nmol protein | 0.1, 0.1 nmol product/min/nmol protein | 5.3 nmol product/min/nmol protein and 5.6 nmol product/min/nmol protein | 32.4 nmol product/min/nmol protein and 29.8 nmol product/min/nmol protein | 1.3 nmol product/min/nmol protein and 0.9 nmol product/min/nmol protein |  | 5.5 nmol product/min/nmol protein and 5.4 nmol product/min/nmol protein | 0.5, 0.5 nmol product/min/nmol protein | 5.5 and 5.9 | 21.4 nmol product/min/nmol protein and 18.4 nmol product/min/nmol protein | 3.9 nmol product/min/nmol protein and 3.1 nmol product/min/nmol protein |  |  | 2.3 nmol product/min/nmol protein and 1.9 nmol product/min/nmol protein | Testosterone hydroxylase activity relative to wild-type CYP3A4 (CYP3A4 [1]): < 50%; Progesterone hydroxylase activity relative to wild-type CYP3A4 (CYP3A4 [5]): < 50%; Progesterone (steroid) hydroxylase metabolite profile compared with wild-type CYP3A4 (CYP3A4 [2]): Neither M1 nor M4 mutant displayed alterations; 7-BFC debenzylase activity relative to CYP3A4 (CYP3A4 [3]): < 50%
4 | M5: CYP3A4 protein variant T363M (g.21867C>T, exon 11) [Mutant M5] |  | <0.1, <0.1 nmol product/min/nmol protein | 5.1^c nmol product/min/nmol protein | 0.1 nmol product/min/nmol protein | 3.6 nmol product/min/nmol protein | 19.5^c nmol product/min/nmol protein | 0.7 nmol product/min/nmol protein | 9.8 | 5.9^c nmol product/min/nmol protein | 0.6 nmol product/min/nmol protein | 5.4 | 16.6^c nmol product/min/nmol protein | 3.1 nmol product/min/nmol protein | diminishes |  | 2.9^c nmol product/min/nmol protein | Testosterone hydroxylase activity compared with wild-type protein, in words (CYP3A4 [6]): approximately half that of wild-type protein; Progesterone hydroxylase activity compared with wild-type protein, in words (CYP3A4 [7]): approximately half that of wild-type protein; 7-BFC debenzylase activity compared with wild-type protein, in words (CYP3A4 [8]): approximately half that of wild-type protein; Stability of the protein (consistency of P450 measurements in multiple determinations) (CYP3A4 holoenzyme): some instability; Expression level of P450 holoenzyme relative to CYP3A4 (CYP3A4 holoenzyme; [9]): less than 10%
5 | M6: CYP3A4 protein variant L373F (g.21896C>T, exon 11) [Mutant M6] | strikingly altered testosterone hydroxylase metabolite profile | 3.5 nmol product/min/nmol protein and 2.8 nmol product/min/nmol protein | 10.1 nmol product/min/nmol protein and 8.6 nmol product/min/nmol protein | 1.7 nmol product/min/nmol protein and 1.3 nmol product/min/nmol protein | 29.2, nmol product/min/nmol protein and 36.3 nmol product/min/nmol protein | 45.3 nmol product/min/nmol protein and 58.8 nmol product/min/nmol protein | 5.9 nmol product/min/nmol protein and 7.7 nmol product/min/nmol protein | 7.5 and 7.7 | 15.8, nmol product/min/nmol protein and 12.3 nmol product/min/nmol protein | 2.1 nmol product/min/nmol protein and 1.6 nmol product/min/nmol protein | 7.9 and 7.7 | 40.1 nmol product/min/nmol protein and 49.8 nmol product/min/nmol protein | 5.1 nmol product/min/nmol protein and 6.5 nmol product/min/nmol protein |  |  | 4.5 nmol product/min/nmol protein and 5.2 nmol product/min/nmol protein | 
6 | M7: CYP3A4 protein variant P416L (g.22026C>T, exon 11) [Mutant M7] |  |  |  |  |  |  |  |  |  |  |  |  |  | abolish | Only a very faint band |  | Detectable P450 holoprotein, in words (CYP3A4 holoenzyme; [9]): no detectable P450 holoprotein
7 | WT: wild-type CYP3A4 protein encoded by pSE3A4H vector, identical to that found in most Caucasians, expressed in E. coli [reference compound] |  | 0.2 nmol product/min/nmol protein | 9.3^a nmol product/min/nmol protein | 0.4 nmol product/min/nmol protein | 3.0 nmol product/min/nmol protein | 41.6^a nmol product/min/nmol protein | 1.2 nmol product/min/nmol protein | 7.1 | 12.1^a nmol product/min/nmol protein | 1.7 nmol product/min/nmol protein | 5.0 | 32.1^a nmol product/min/nmol protein | 6.4 nmol product/min/nmol protein |  | Bands of the expected size | 6.5^a nmol product/min/nmol protein | 

Source: patent US7655771B1, “Polymorphisms in the human cyp3a4 and cyp3a7 genes and their use in diagnostic and therapeutic applications” (PGx Health, LLC, priority 1999, dated 2010)
